{
  "source": "paper PMC8194188",
  "about": "“Kinetic modeling of phosphorylase-catalyzed iterative β-1,4-glycosylation for degree of polymerization-controlled synthesis of soluble cello-oligosaccharides” (Biotechnology for Biofuels, 2021)",
  "substrate": "O=P(O)(O)O[C@H]1O[C@H](CO)[C@@H](O)[C@H](O)[C@H]1O",
  "test": "initial rates from phosphate release, Michaelis-Menten fit",
  "format": "biochemical, [Clostridium] cellulosi",
  "details": "100 mM cellobiose (saturating), 50 mM MES pH 7.0, 45 °C, synthesis direction",
  "data": [
    {"protein": "CcCdP (cellodextrin phosphorylase from Clostridium cellulosi) ([Clostridium] cellulosi) (protein, N-terminally His-tagged, recombinant, purified) MITKVTPRSCKLTPFEILKQKFGSIIAMSGCADAIYSDSSCKNVIGITGLPIKAPVIQVLLENSKLAAFLNEYVQNKSVCLALEGMRYCLVFEDGQKVKLPQELDDIIQSTVSDVKNWAGTLTENGEHVIDLKKPSPGPHFYVNLLIGNRLGFNRTLQTTPKSVVDRFGRGSFRSHAATQVLATRYDMRQEENGFPANRQFYLYENGKQIFYSGSVDDDNILEAKCIHSCNRTVIKYKTACKLEITRTIFLCPQKKGLPLATEIQIINIKNNSERKRNLSITYTGMFGTAATHAIFEDVTYTNVIMQSAALYNDNGEFIGITPDYYRKKYNEDTRFVTMFVRKDGKRIFPKSFCTDYNDFVGNGTLEHPAGGEHLNNKLNRKGPGFFALGTPFTIMPGQDIEIDTFTGMSSSKDNPNYDDTTMPKELEALLRYFEASDSVQSALREVIDFQEKYCKYIEFKTEDKMFNAGFNKNLAFQILYQTFMSRSFCQTQKGYREIGFREIQDLYASMYYFINLGYQDFVKNLLFEWTSNVYKMGYANHNFYWVGKQPGLYSDDSLWLLQAYYRYIIYTKDTSILNEEVPVADGNNEKRAVRDTLKAIIQYSAFISVGNHGLPLLDLADWNDCLKIDNDYVDGAQKEKLYYKQLKETGGKYGDRFMSDYSESVMNAFLLKVAVDDLAEIAELDKDAELEQSMRKISSALSEKIQKYAWKGNFFARVLLNRYKDGSFTYIGAKGDKLSADPNIDGTYFLNSFSWAILSGVATDEQIGIMVDTLKKYMLTPYGIRLTTPADLNKLANDTATDHYFYGDRENGAVFKHASMMATAALAKAAKSVKDKALAKEMARLAYYMIDLVLPYKNLEDPFKLAGNPRICTQYINADSGENIGPLLSGTATWLNLTITSLAGIEYVKDGIMFSPVLREDETRLEYSLKAPGCSYNITITKPRGFARLIDSAYDLRIDGKKTDNCIIPMFTDGKEHSVTLEFK", "values": [
      {"measurement": "Km", "value": "0.47 ± 0.24", "unit": "mM"}
    ]}
  ]
}
